Laboratory results published in patent US20160185837A1 (AstraZeneca / MedImmune, published 2016).

T1: rat GIP receptor (rat, UniProt P43219 19-455)
T1 sequence (looked up): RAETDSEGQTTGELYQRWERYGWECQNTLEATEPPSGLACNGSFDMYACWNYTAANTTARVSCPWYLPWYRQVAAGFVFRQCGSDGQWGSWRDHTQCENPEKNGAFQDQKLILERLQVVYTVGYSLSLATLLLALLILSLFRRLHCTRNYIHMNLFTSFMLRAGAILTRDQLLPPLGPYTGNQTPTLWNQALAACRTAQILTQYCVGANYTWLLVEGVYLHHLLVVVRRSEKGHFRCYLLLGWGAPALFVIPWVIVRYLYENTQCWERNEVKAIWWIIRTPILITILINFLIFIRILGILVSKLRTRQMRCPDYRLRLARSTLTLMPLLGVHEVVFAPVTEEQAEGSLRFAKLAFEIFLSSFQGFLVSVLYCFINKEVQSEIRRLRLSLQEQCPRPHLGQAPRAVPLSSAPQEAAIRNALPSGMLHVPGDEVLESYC

T2: human GIP receptor (human, UniProt P48546 22-466)
T2 sequence (looked up): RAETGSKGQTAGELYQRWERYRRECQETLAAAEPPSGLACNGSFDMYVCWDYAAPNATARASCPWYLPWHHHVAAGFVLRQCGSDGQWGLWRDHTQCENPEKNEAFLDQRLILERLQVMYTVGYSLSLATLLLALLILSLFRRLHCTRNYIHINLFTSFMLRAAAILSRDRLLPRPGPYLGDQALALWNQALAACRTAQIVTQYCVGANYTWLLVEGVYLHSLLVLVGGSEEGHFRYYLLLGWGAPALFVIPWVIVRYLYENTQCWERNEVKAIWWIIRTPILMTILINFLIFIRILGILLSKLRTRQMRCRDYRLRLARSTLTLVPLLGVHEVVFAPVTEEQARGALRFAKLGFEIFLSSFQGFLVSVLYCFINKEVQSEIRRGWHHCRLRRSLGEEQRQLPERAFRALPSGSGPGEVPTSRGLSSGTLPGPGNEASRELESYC

T3: rat GLP-1 receptor (rat, UniProt P32301 22-463)
T3 sequence (looked up): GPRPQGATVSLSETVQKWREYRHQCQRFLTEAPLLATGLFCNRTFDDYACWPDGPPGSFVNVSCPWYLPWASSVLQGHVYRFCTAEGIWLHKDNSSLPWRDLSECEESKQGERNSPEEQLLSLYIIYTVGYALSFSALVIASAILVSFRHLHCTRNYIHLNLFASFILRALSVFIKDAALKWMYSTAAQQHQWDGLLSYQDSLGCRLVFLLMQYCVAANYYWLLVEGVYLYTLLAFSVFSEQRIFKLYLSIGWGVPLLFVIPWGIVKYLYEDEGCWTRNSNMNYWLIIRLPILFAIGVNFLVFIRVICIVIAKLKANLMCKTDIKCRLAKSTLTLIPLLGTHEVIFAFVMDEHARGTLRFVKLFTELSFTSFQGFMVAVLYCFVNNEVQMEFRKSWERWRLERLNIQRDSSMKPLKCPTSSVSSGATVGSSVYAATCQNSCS

T4: mouse GLP-1 receptor (mouse, UniProt O35659 22-463)
T4 sequence (looked up): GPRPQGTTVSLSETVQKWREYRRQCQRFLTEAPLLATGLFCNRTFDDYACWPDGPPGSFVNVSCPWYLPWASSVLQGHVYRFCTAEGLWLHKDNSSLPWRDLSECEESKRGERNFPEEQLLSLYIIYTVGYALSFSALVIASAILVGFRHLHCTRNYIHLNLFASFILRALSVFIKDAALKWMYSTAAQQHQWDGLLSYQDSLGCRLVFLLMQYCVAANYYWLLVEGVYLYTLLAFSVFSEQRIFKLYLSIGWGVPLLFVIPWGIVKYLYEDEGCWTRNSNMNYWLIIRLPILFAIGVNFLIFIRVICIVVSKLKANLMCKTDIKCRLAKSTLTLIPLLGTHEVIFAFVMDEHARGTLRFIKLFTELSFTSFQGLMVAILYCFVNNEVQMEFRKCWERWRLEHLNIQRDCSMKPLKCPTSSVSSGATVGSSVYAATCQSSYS

T5: mouse GIP receptor (mouse, UniProt Q0P543 19-460)
T5 sequence (looked up): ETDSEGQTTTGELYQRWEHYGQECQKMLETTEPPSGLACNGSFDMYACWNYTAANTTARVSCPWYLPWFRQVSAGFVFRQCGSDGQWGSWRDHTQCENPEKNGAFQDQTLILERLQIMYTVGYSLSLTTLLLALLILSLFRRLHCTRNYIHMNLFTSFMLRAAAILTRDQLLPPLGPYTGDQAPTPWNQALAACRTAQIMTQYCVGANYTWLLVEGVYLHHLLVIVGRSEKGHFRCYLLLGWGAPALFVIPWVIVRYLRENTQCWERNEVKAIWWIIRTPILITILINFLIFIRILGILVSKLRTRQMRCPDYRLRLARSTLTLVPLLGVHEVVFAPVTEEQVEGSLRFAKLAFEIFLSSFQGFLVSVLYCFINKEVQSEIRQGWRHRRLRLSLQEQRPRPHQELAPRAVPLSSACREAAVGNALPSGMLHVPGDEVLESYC

B1: IP213 (Fc fusion)
chain: YSEGTFTSDYSKLLEEEAVRLFIEWLLAGGAAAGGSGSTASSGSGSATGGGGAATHTCPPCPAPEF
B2: IP087 (Fc fusion)
chain: YSEGTFTSDYSKLLEEEAVRLFIEWLLAGPAAAGGSGSTASSGSGSATGGGGAATHTCPPCPAPEF
B3: IP296 (Fc fusion)
chain: YSEGTFTSDYSKLLEEEAVRCFIEWLVKGGPSSGAPPCSGGGGGGGGGGGGGGGGGGGGGGGGACPPC
B4: IP354 (Fc fusion)
chain: YSEGMHTSDFSKLLEEEAVRLFIEWLLAGGGGGGSGGGGSGGGGSGGGGSATHTCPPC
B5: IP355 (Fc fusion)
chain: YSEGTHTSLFSKLLEEEAVRLFIEWLLAGGGGGGSGGGGSGGGGSGGGGSATHTCPPC
B6: IP297 (Fc fusion)
chain: YSEGTFTSDYSKLLEEEAVRLFIEWLLAGGGGGGGGGGGGGGGGGGGGGGGGGACPPC
B7: IP300 (Fc fusion)
chain: YSEGTFTSDYSKLLEEEAVRLFIEWLLAGAPPGGGGGGGGGGGGGGGGGGGGGACPPC
B8: IP323 (Fc fusion)
chain: YSEGTFTSDYSKLLEEEAVRLFIEWLVKGPGGGGGSGGGGSGGGGSGGGGSGGGGSGGGGSA
B9: IP327 (Fc fusion)
chain: YSEGTFTSDYSKLLEEEAVRLFIEWLLAGGGGGGGSGGGGSGGGGSGGGGSGGGGSGGGGSA
B10: IP324 (Fc fusion)
chain: YSEGTFTSDYSKLLEEEAVRLFIEWLVKGPGGGGGSGGGGSGGGGSGGGGSGGGGSGGGGSGGGGSA
B11: IP325 (Fc fusion)
chain: YSEGTFTSDYSKLLEEEAVRLFIEWLVKGPGGGGGSGGGGSGGGGSGGGGSGGGGSGGGGSGGGGSGGGGSA
B12: IP328 (Fc fusion)
chain: YSEGTFTSDYSKLLEEEAVRLFIEWLLAGGGGGGGSGGGGSGGGGSGGGGSGGGGSGGGGSGGGGSGGGGSA
B13: IP322 (Fc fusion)
chain: YSEGTFTSDYSKLLEEEAVRLFIEWLVKGPGGGGGSGGGGSGGGGSGGGGSGGGGSA
B14: IP326 (Fc fusion)
chain: YSEGTFTSDYSKLLEEEAVRLFIEWLLAGGGGGGGSGGGGSGGGGSGGGGSGGGGSA

Columns and labels:
Test in all cases: cell-based or functional assay
human glucagon receptor = human glucagon receptor (human, UniProt P47871 26-477)
rat GIP receptor = molecular target: T1, rat GIP receptor
human GIP receptor = molecular target: T2, human GIP receptor
human GLP-1 receptor = human GLP-1 receptor (human, UniProt P43220 24-463)
rat GLP-1 receptor = molecular target: T3, rat GLP-1 receptor
mouse GLP-1 receptor = molecular target: T4, mouse GLP-1 receptor
mouse GIP receptor = molecular target: T5, mouse GIP receptor

Binder | cAMP EC50 (human glucagon receptor) | cAMP EC50 (rat GIP receptor) | cAMP EC50 (human GIP receptor) | cAMP EC50 (human GLP-1 receptor) | cAMP EC50 (rat GLP-1 receptor) | cAMP EC50 (mouse GLP-1 receptor) | cAMP EC50 (mouse GIP receptor) | other results
B1 | 18 nM | 0.054 nM | 0.0059 nM | 0.087 nM | 0.087 nM | 0.82 nM | 2.5 nM | –
B2 | 9.6 nM | 0.17 nM | 0.0086 nM | 0.28 nM | 0.11 nM | 1.2 nM | 5.7 nM | –
B3 | > 1120 nM | 0.46 nM | 0.018 nM | 0.57 nM | 0.055 nM | 1.4 nM | 110 nM | cAMP EC50, Batch 2 (human glucagon receptor): > 784 nM; cAMP EC50, Batch 3 (human glucagon receptor): > 4490 nM; cAMP EC50, Batch 4 (human glucagon receptor): 6700 nM; cAMP EC50, Batch 4 (rat GIP receptor): 0.14 nM; cAMP EC50, Batch 2 (human GIP receptor): 0.021 nM; cAMP EC50, Batch 3 (human GIP receptor): 0.014 nM; cAMP EC50, Batch 4 (human GIP receptor): 0.011 nM; cAMP EC50, Batch 2 (human GLP-1 receptor): 0.39 nM; cAMP EC50, Batch 3 (human GLP-1 receptor): 0.37 nM; cAMP EC50, Batch 4 (human GLP-1 receptor): 0.29 nM; cAMP EC50, Batch 2 (rat GLP-1 receptor): 0.028 nM; cAMP EC50, Batch 4 (rat GLP-1 receptor): 0.027 nM; cAMP EC50, Batch 2 (mouse GLP-1 receptor): 0.6 nM; cAMP EC50, Batch 4 (mouse GLP-1 receptor): 0.64 nM; cAMP EC50, Batch 2 (mouse GIP receptor): 55 nM; cAMP EC50, Batch 4 (mouse GIP receptor): 65 nM
B4 | > 7370 nM | 0.74 nM | 0.024 nM | 1.4 nM | 3.6 nM | 13 nM | 270 nM | –
B5 | > 527 nM | 0.5 nM | 0.17 nM | 8.8 nM | 20 nM | 220 nM | 17 nM | –
B6 | 31 nM | 0.089 nM | 0.015 nM | 0.19 nM | 0.028 nM | 0.82 nM | 8.1 nM | –
B7 | 21 nM | 0.069 nM | 0.013 nM | 0.21 nM | 0.027 nM | 0.94 nM | 0.9 nM | –
B8 | 190 nM | 0.082 nM | 0.017 nM | 0.2 nM | 0.019 nM | 0.34 nM | 65 nM | –
B9 | 10 nM | 0.028 nM | 0.016 nM | 0.25 nM | 0.032 nM | 0.7 nM | 1.2 nM | –
B10 | 470 nM | 0.14 nM | 0.037 nM | 0.4 nM | 0.04 nM | 0.72 nM | 240 nM | cAMP EC50, Batch 2 (human glucagon receptor): 120 nM; cAMP EC50, Batch 2 (rat GIP receptor): 0.141 nM; cAMP EC50, Batch 2 (human GIP receptor): 0.016 nM; cAMP EC50, Batch 2 (human GLP-1 receptor): 0.14 nM; cAMP EC50, Batch 2 (rat GLP-1 receptor): 0.0363 nM; cAMP EC50, Batch 2 (mouse GLP-1 receptor): 0.391 nM; cAMP EC50, Batch 2 (mouse GIP receptor): 67.5 nM
B11 | > 455 nM | 0.13 nM | 0.037 nM | 0.46 nM | 0.035 nM | 0.64 nM | 170 nM | cAMP EC50, Batch 2 (human glucagon receptor): 110 nM; cAMP EC50, Batch 2 (rat GIP receptor): 0.154 nM; cAMP EC50, Batch 2 (human GIP receptor): 0.018 nM; cAMP EC50, Batch 2 (human GLP-1 receptor): 0.16 nM; cAMP EC50, Batch 2 (rat GLP-1 receptor): 0.0519 nM; cAMP EC50, Batch 2 (mouse GLP-1 receptor): 0.488 nM; cAMP EC50, Batch 2 (mouse GIP receptor): 57.2 nM
B12 | 43 nM | 0.17 nM | 0.085 nM | 1.2 nM | 0.21 nM | 3.9 nM | 5.4 nM | cAMP EC50, Batch 2 (human glucagon receptor): 13 nM; cAMP EC50, Batch 2 (rat GIP receptor): 0.092 nM; cAMP EC50, Batch 2 (human GIP receptor): 0.033 nM; cAMP EC50, Batch 2 (human GLP-1 receptor): 0.33 nM; cAMP EC50, Batch 2 (rat GLP-1 receptor): 0.12 nM; cAMP EC50, Batch 2 (mouse GLP-1 receptor): 1.3 nM; cAMP EC50, Batch 2 (mouse GIP receptor): 2.2 nM
B13 | 260 nM | 0.11 nM | 0.026 nM | 0.29 nM | 0.025 nM | 0.41 nM | 8.3 nM | –
B14 | 15 nM | 0.037 nM | 0.027 nM | 0.37 nM | 0.039 nM | 0.87 nM | 1.7 nM | –
